1 molecule from patent US11471494B2, “Microorganisms programmed to produce immune modulators and anti-cancer therapeutics in tumor cells” (Synlogic Operating Company, Inc., priority 2017, dated 2022) can be followed below.

What all share (conditions): supernatant
Assay [1] can be described thus: SIRPα/CD47 ELISA binding assay, control coatings.
For another assay, the system named is anti-mSIRPα antibody. The assay can be described thus: SIRPα/CD47 ELISA binding assay, detection by antibody.
The next assay deals with T1, mCD47 (Mus musculus, UniProt Q61735).
T1 sequence (Q61735 19-303): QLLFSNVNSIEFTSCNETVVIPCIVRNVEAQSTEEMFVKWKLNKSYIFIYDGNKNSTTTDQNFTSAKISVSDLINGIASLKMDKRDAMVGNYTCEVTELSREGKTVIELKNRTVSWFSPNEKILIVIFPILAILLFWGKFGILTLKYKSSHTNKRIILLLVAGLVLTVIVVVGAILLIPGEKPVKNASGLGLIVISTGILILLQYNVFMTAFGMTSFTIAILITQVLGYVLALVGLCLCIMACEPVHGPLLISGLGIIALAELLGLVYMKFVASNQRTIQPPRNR
The assay is described as follows: SIRPα/CD47 ELISA binding assay of supernatants. Background: ELISA stands for enzyme-linked immunosorbent assay.

B1: Secreted WT mSIRPα: wild type murine SIRPα secreted by engineered Nissle (SYN2996), in supernatant (protein)
chain: KELKVTQPEKSVSVAAGDSTVLNCTLTSLLPVGPIRWYRGVGPSRLLIYSFAGEYVPRIRNVSDTTKRNNMDFSIRISNVTPADAGIYYCVKFQKGSSEPDTEIQSGGGTEVYVLAKPSPPEVSGPADRGIPDQKVNFTCKSHGFSPRNITLKWFKDGQELHPLETTVNPSGKNVSYNISSTVRVVLNSMDVNSKVICEVAHITLDRSPLRGIANLSNFIRVSPTVKVTQQSPTSMNQVNLTCRAERFYPEDLQLIWLENGNVSRNDTPKNLTKNTDGTYNYTSLFLVNSSAHREDVVFTCQVKHDQQPAITRNHTVLGFAHSSDQGSMQTFPDNNATHNWN
modifications: left off: small tags and cut ends
On to B1, for which, in assay [1], the “ELISA signal, coating IgG” value is given as 0.056 and the “ELISA signal, coating PBS” value stood at 0.059. Also, the “ELISA signal, coating Anti-mSIRPα” value in the assay on anti-mSIRPα antibody was 0.829. Also, the “ELISA signal, coating mCD47” value in the assay with mCD47 was determined as 1.069.
